The data set in a line: soluble on expression in E. coli; label from the status in PepcDB or PDB records.
As to “MGSDKIHHHHHHACSSDDDNTVNDETTPPEEEAVVTAPDVVGTYWGNLDISMLPDGSDQEVVIADGLPKFITFSQVSDTEVKMELKEFELFINGNILKFGDIVIDKCAVKKETDASTFTGQQDLTFQGDAAALGTCATSIEGTVQSGNATMNIQVKVPALKQTVKVAFSGVKQVEESGKD”, the “soluble on expression in E. coli” value was “not soluble”.
Then “MGSDKIHHHHHHAGELNLYSMNTGSYVYHMTGNHGQYNEHFNNNFFSVERKFSQDSKYSVLVGTMKNSFDDRCLTLGVRRDWLKNDTGWVLKGVYAYTGEFFFDAFSHCGDSGTYRTAKKITGIGFSPYLYHGLQYNFTDYFGVEGGIIVPAIFVMSVQWSFR”, with “not soluble”; and “MGSDKIHHHHHHAQRIEELPAVPLQIGYEKTLHLIFPTEVKYYSIGGDYVIGEKVGNCPEIIRLKAAEENFPGETTLSVVTADTKFYSYAISYNAHPVESYVRVDGQAPAPHTLPVGKDRQMFLIFPAGITYVDYGSTNVEVEKAEGVDNILAVKATGEFTEDTNISAVVEGGKFYTFNLHYAPFPERFSFVIDKEKTQRVAILDERERSSEQKERIRQAISKRIPLDLGLKDKNAGMEFEVGNIFIDGDILLLRMTLTNRTQIGYTTDFMRFYIQDAKIHKKTAVQQIEQNILFAFDYPEEIPAHESRTFTVAMNKFTIPDKKRLIIEIQERNGGRHFLYKLKNKSLLGAEEVFRSLQEQKTEDEADRILRRISR”, with “not soluble”; and “MGSDKIHHHHHHAQVNDTIQRTTGNDLYQGITRKLPYWQMVTPHGVQVTFAKTVHIIFPSAVRYVDLGSNWIIAGKADGAENVIRVKAATEGFPGETNFSVICEDGSFYSFNARYAHEPEMLNIEMKDFLENGDTTDFSHTRMNIHFRELAGESPLLVKLIMQSIYKEDRREIRHLGCKRFGVQFLLKSVHSHNGLFYFHTETRNRSNVAFRTDFIRFKIVDKKVPKRTAIQERVIDPVRSYNEVLVTEGKSDVRTVYAVPQFTIPDDKLLVIELFEKDGGRHQTIRVENADLVAARQINELKIK”, with “not soluble”.
Then “MGSDKIHHHHHHASCSGGDKSKAPVVSTADIENAAEVIKYYNTSLGVLKDMVKEKDVNAVLDYMEQKGKTPALSAIVPPAVVSKDSAIVLNPGNCFNEETRRNLKQNYTGLFQARTEFYANFDTYLSYLKKKDVTNAKKLLDVNYQLSTQMSEYKQNIFDILSPFTEQAELVLLVDNPLKAQIMSVRKMSSTMQSILNLYARKHRMDGPRIDLKVAELTKQLDAAKKLPVVNGHEGEMKSYQAFLSQVETFIKQVKKVREKGEYSDADYDMLTSAFETSII”, with “not soluble”.
“MGSDKIHHHHHHATEADVEAAFNPYKNGFPSFPGLAAGTVVNKGNVEQFKDALDPGLYQIVKNGWDEIKVGPTTQFAMDKFYVEATKKNLNTAKLGAQNGEITGFVAGRPFPEEPKADDPRAGEKLAWNFKYGLNWGDNAAIYPFYWKYRNMTSGQVERTLKFNFHFLNFKHRVQHAPVPEVTPNPSELFRGIYVKVLEPQDLKNTQLLIQRYEDDLKFDDAYLYLGFQRRVRRLATGQTTDAFLGADLMIEDFEGYNGRISDMKWTFKGTKNILMPYYNHNELQLTDEFKDPSGYKFVDFGGQGGCFPKITWQLRKVYVLEAAPVLASHPVSKRVFHVDAQVFNINRTLIYDRKGELWKTFTIGKSHPDHHLPVNKGTGIAIDDSFSMIDVQAKHCTTGQFKGQVDPKLNPPSLFQVQNMRGGD”: the “soluble on expression in E. coli” value is reported as “not soluble”.
Then “MGSDKIHHHHHHAYFFNVAFVPGQKSVLNKYSSKKKKDPFAQNKKWYADAKKEQWYIKSASSNYCLDANYIPKKNSHKTAVLLHGFMNNKDTMAPYAAMFHQLGYNVLIPDARAHGKSQGKYIGYGWPEKYDVQKWVKKDIAEKGKKQKIVIFGVSMGGATTMMTSGLKMPKQVKAYIEDCGYTDVKSEFLYEAKDIYKMPKLVASSAVAILSGVSKANLGFYLGDASAVNQLKKNKLPMMFIHGSKDNFVPTKMVYQNYKATNGPKELWIAEKAAHARSFETYPREYKARVSKFLNKYV”, with “not soluble”; and “MGSDKIHHHHHHCASSLTQGKYVDGTHLVQAKGKKSQIVLEVKVDQGKIVDIKTKSHKETESLYLNAERLLPRIVANNGHEGIDAVSGATYSSNGILKAVNDLPRASSVQPEYVAVGAKEEQGDDFKLKWSIQPKLGLLVGDYYYEEARFRQGHMGSMTIVTNSQDRNDVILAEFNESGRPNYYTRLYQDVPKRMSEYNFSMGKKKGTAWVQSALTMEKLMVEQDKLTFEPNPNHDPKLANKLKEPNRLKYLGIDVVAGASNSIQQSMIPLTAKIHHKIHGEGTRLKFYQLAEKLVNEKGRWTGITAMLRLVVDPASKQIIKAHFDEIFADEKAQIQDASLKKFYRQSKYDSINYSEPARIGFNVMIDALNAHLQAGGSLFDINDLPATGDSGNYAATGFTKRSSSWDIYLNQAEQLYKKMRLDGVIAEHKHPAAK”, with “not soluble”; and “MGSDKIHHHHHHDDNSYSLGDIWIAVATVVPEGNNVYYLRLDDGDKLWPAATNYPNYQPKPNQRALVNFTILADSTQSNLGGFSHYIKVNAIHNILTKSIAKNEGAANDSIYGTDPVSIYNNNMWIGDGYLNIYFETLWGGKTAHFINLIQPDAENDPYTLEFRHNAYDDPQYTIGAGRVAFNLSSLPDTKGETVDLVVNYWTSEGKQAYKLKYNSDKTKMEDTSQGYTNDSISNITDMK”, with “not soluble”.
For “MGSDKIHHHHHHEISDGVVRIGLLTDMSGAFSQFSGHGSVVAAQMAIDDCLAAECKGMKIELLSADHQNKTDIALAKAREWADVNKVDAYADMVNSAVALAMQSLAVQKKKAALFAGGPLRISNEDCQPEYAVQWMWDTYSQTAAAIKGLAKPKQGWYFITVDYAYGNAAVAEARKQLEAIGAHTVGESKHPLNSNDMSSQIIAAQQSKADVVAFANSGADSANAIKTASEFKLGAKKLQAAFFPTIYEIKGIGLAQAKGLRFPESFYWDIDDGTRRFSKRFMDIYKKGPPSLTHAGVYSSVYHYLKAVAATKSDDAQTVIRKMHELPIRDDVVRNPKLRPDGRMVHDYYYFRVKSPQESKGPWDLYALEKTLPGDEVFLPVAESQCRVFKGQAK”, the “soluble on expression in E. coli” value is “not soluble”.
Then “MGSDKIHHHHHHENLYFQGMWKSISQVLAEQFGAYYFIKHKEKLYSGEMNEIWLINDEVQTVFVKINERSYRSMFRAEADQLALLAKTNSINVPLVYGIGNSQGHSFLLLEALNKSKNKQSSFTIFAEKIAQLHQIQGPDKYGLDFDTWLGPIYQPNDWQTSWAKFFSENRIGWQLQICKEKGLIFGNIDLIVQIVADTLSKHNPKPSILHGNLWIENCIQVDDKIFVCNPACYWGDRECDIAFSSLFEPFPTNFYQRYNEIYPLEEGYLERKLIYQLYYLLNFSYRYYNKKQSYVSLTQKLINQILHKIDK”, with “soluble”; and “MGSDKIHHHHHHEQEDKVSGEKTLAVVSASSDDRPSTRGIINDNTYALGVFRTTANTYAPLYNVKHIYSGGEWGADDVIKVDYRNASFFAYYPYHTATGNYAGLAGGTTLTLQAQLFNAGEDICYGAGEASGGGPVSVYNPFVEFLNMKHAYARLRLTLTRGEKFDKTKKCNIQNITFKSNNANFYLTRSLDIASTAGATGGSAVAAGYVHNPNVNIATGKSVTYEYMFPPQPLDGSKLTILVTVDGVTRSCDISTLGSSLDSGKYYGVSLTFTDVGIILSSAVVTVNNFGGQGNTQVDTEL”, with “not soluble”.
On to “MGSDKIHHHHHHFNQYRENVELTAQRLEATYRASNILNLGVACLKKHFGFLGMEINWSTGSVTWFDDFRKRVLLQSDGDAWENVFSLLDTEKYYNLSSDIDFSTEASKLGFSNFEAVAIPFKNNPFFALLVVRAQVGKAVVYKYAVLSSDFLNKYAYFTEKETRPDGDKIYFITQDIIDGPFRSNDVIHVKGEPLFKGSVEFKDIDLEAGEGPRYENPPPKYLTEEDIKKYNIEKIKDYYSQQIERIVKPASEVVLSSEPVGIELPSINEFVESWEEKENDKTIYYKKQREIVYTLEFNTPKGSSGNDYLIKVSYKEVYRIYKSEDQEKWNFVREEVLGEGELFHIKSKPNSDQYHLVLQGNEAREFLGLDRNEYDIYFNGVIKTDNDVYLKNMSEGNIKPMFVDGRYTIVANNIYIEDHIIYNDYREVLEEIADKEKISGNSDQKIAQAVIRKLGVDGNIEEDYSELLKNHESDDFLNLVAYKNVVITDKKPNMKIFASIYAFTGSFYVKGYNEKDFLKNNERELTERELTIFGSLAQYVRGAVGTFYWSRDGKPTIKTGYRKNYIYDWRILKGFSVFGTPTVPKESNILNVREVY”, for which the “soluble on expression in E. coli” value is listed as “not soluble”.

The values above are taken from the DeepSol protein solubility set.
